These results are taken from paper PMC6680903 (Molecules, 2019).

Common to all, as to settings: both partners purified
The target in assay [1] is T1, β2-Microglobulin (Homo sapiens, UniProt P61769).
T1 construct: human β2-microglobulin; Amine-coupled to a CM5 chip (150 RU); also called antigen β2M; source: expressed and purified as previously described [27]
Nature of the assay: SPR; Biacore T200; β2M immobilised on a CM5 chip to 150 RU; VHH samples after the modification procedure (NHS-Fluo:VHH 0, 1, 5 or 20; 2 h at 4 °C, ultrafiltration) in 2-fold serial dilution, 30 μL/min, HBS-EP+, 25 °C; 1:1 model with drift and RI2. In general terms: Surface plasmon resonance follows binding to a sensor surface in real time, without labels.

Assay [2] addresses T2, β2-Microglobulin (β2M) (Homo sapiens, UniProt P61769).
T2 construct: β2-microglobulin, human (the title says anti-human β2-microglobulin VHHs); Probably the mature protein without the signal peptide (surmised); also called antigen β2M; human β2-microglobulin; source: expressed and purified as previously described [27]
Nature of the assay: SPR; Biacore T200; β2M immobilized on a CM5 chip to 150 RU; 2-fold serial diluted VHH at 30 μL/min in HBS-EP+; 25 °C; 1:1 binding model; VHH sample 'origin' without modification or other treatment.

Assay [3] deals with T2, β2-Microglobulin (β2M). Description: SPR; Biacore T200; β2M immobilized on a CM5 chip to 150 RU; 2-fold serial diluted VHH at 30 μL/min in HBS-EP+; 25 °C; 1:1 binding model; VHH samples after incubation with NHS-Fluo at molar ratio 0 (negative control), 1, 5 or 20 and ultrafiltration.
For assay [4], the target named is T1, β2-Microglobulin. Nature of the assay: SPR; Biacore T200; β2M immobilised on a CM5 chip to 150 RU; VHH samples 'Origin' (no treatment) in 2-fold serial dilution, 30 μL/min, HBS-EP+, 25 °C; 1:1 model with drift and RI2.

T1 sequence (P61769 21-119): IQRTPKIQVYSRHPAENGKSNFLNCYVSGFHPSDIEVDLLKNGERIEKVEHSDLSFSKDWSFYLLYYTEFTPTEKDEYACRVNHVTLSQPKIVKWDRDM
T2 sequence (P61769 21-119): as above

B1: NB-1 modified with 5 times of NHS-Fluo (VHH)
VHH: QVQLVESGGGLVQAGGSLRLSCAASGSTLDSYYIGWFRQAPGKEREGVSCISSSGNSIRYVDSVKDRFTISRDNGKNTAYLHINSLRPEDTAVYYCAASRRGRKPGLPCSLVRERYAYWGQGTQVTVSS
notes: as the VHH domain of Dm2; flexible (G4S)4 linker between the VHH domain and the His6 tag, written out from '(G4S)4'; A mixture of isomers with different numbers and places of fluorescein; also called NB-1-5; source: E. coli SHuffle T7, purified (HisTrap HP), modified with NHS-Fluo, ultrafiltration
For orientation: Kd means a measure of binding affinity in units of concentration. As a reminder, the koff is the rate constant with which the complex falls apart. A low value points to slow dissociation. As a reminder, the kon is the rate constant with which the complex forms. For the molecule B1, in the assay with β2-Microglobulin [1], the Kd was 202 nM, the koff is 0.00843 s⁻¹ and the kon is 41800 M⁻¹ s⁻¹.

B2: NB-1 modified with 20 times of NHS-Fluo (VHH)
VHH: QVQLVESGGGLVQAGGSLRLSCAASGSTLDSYYIGWFRQAPGKEREGVSCISSSGNSIRYVDSVKDRFTISRDNGKNTAYLHINSLRPEDTAVYYCAASRRGRKPGLPCSLVRERYAYWGQGTQVTVSS
notes: as the VHH domain of Dm2; flexible (G4S)4 linker between the VHH domain and the His6 tag, written out from '(G4S)4'; also called NB-1-20; labeled NB-1; source: E. coli SHuffle T7, purified (HisTrap HP), modified with NHS-Fluo, ultrafiltration
As to B2, in the assay with β2-Microglobulin [1], the koff was found to be 0.00863 s⁻¹ and the kon came out at 29000 M⁻¹ s⁻¹.

B3: NB-1 modified with 1 time of NHS-Fluo (VHH)
VHH: QVQLVESGGGLVQAGGSLRLSCAASGSTLDSYYIGWFRQAPGKEREGVSCISSSGNSIRYVDSVKDRFTISRDNGKNTAYLHINSLRPEDTAVYYCAASRRGRKPGLPCSLVRERYAYWGQGTQVTVSS
notes: as the VHH domain of Dm2; flexible (G4S)4 linker between the VHH domain and the His6 tag, written out from '(G4S)4'; A mixture of isomers with different numbers and places of fluorescein, unmodified VHH among them; also called NB-1-1; source: E. coli SHuffle T7, purified (HisTrap HP), modified with NHS-Fluo, ultrafiltration
Take B3: in the assay with β2-Microglobulin [1], the Kd was found to be 177 nM, the koff turned out to be 0.00761 s⁻¹ and the kon amounted to 43000 M⁻¹ s⁻¹.

B4: NB-1 (anti-β2M VHH, unmodified), VHH-(G4S)4-His6 (VHH)
VHH: QVQLVESGGGLVQAGGSLRLSCAASGSTLDSYYIGWFRQAPGKEREGVSCISSSGNSIRYVDSVKDRFTISRDNGKNTAYLHINSLRPEDTAVYYCAASRRGRKPGLPCSLVRERYAYWGQGTQVTVSS
notes: VHH domain of NB-1; flexible (G4S)4 linker between the VHH domain and the 6xHis-tag, written out from the printed formula; Homology model built on template PDB 4KDT (GMQE 0.99); also called NB-1-origin; NB-1-0; source: E. coli SHuffle T7, purified (HisTrap HP)
In the case of B4, the Kd in the assay with β2-Microglobulin (β2M) [2] came to 60 nM; with β2-Microglobulin (β2M) [3], 138 nM.

B5: NB-2 (VHH)
VHH: QVQLVESGGGLVQHGGSLRLSCAASGSAFSTYSMTWHRQAPGKGREWVAGVDRSNSDTNYADSVKGRFTIYRDNAQNTVYLRMNSLKPEDTAVYYCSAERLDGSVRREYWGQGTQVTVSS
notes: VHH domain of NB-2; flexible (G4S)4 linker between the VHH domain and the His6 tag, written out from '(G4S)4'; VHH-(G4S)4-His6; Template of the homology model: PDB 5IML (GMQE 0.92). 'Origin' = no treatment; '0' = negative control; also called NB-2-Origin; NB-2-0; source: E. coli SHuffle T7, purified (HisTrap HP)
In the assay with β2-Microglobulin [4], B5 displayed a Kd of 356 nM, a koff of 0.00218 s⁻¹ and a kon of 6120 M⁻¹ s⁻¹. In the assay with β2-Microglobulin [1], this molecule showed a koff of 0.00257 s⁻¹ and a kon of 3540 M⁻¹ s⁻¹.

B6: NB-2 modified with 1 time of NHS-Fluo (VHH)
VHH: QVQLVESGGGLVQHGGSLRLSCAASGSAFSTYSMTWHRQAPGKGREWVAGVDRSNSDTNYADSVKGRFTIYRDNAQNTVYLRMNSLKPEDTAVYYCSAERLDGSVRREYWGQGTQVTVSS
notes: as the VHH domain of Dm6; flexible (G4S)4 linker between the VHH domain and the His6 tag, written out from '(G4S)4'; A mixture of isomers with different numbers and places of fluorescein; also called NB-2-1; source: E. coli SHuffle T7, purified (HisTrap HP), modified with NHS-Fluo, ultrafiltration
In the assay with β2-Microglobulin [1], B6 gave a Kd of 2530 nM, a koff of 0.00403 s⁻¹ and a kon of 1600 M⁻¹ s⁻¹.

B7: NB-2 modified with 20 times of NHS-Fluo (VHH)
VHH: QVQLVESGGGLVQHGGSLRLSCAASGSAFSTYSMTWHRQAPGKGREWVAGVDRSNSDTNYADSVKGRFTIYRDNAQNTVYLRMNSLKPEDTAVYYCSAERLDGSVRREYWGQGTQVTVSS
notes: as the VHH domain of Dm6; flexible (G4S)4 linker between the VHH domain and the His6 tag, written out from '(G4S)4'; A mixture of isomers with different numbers and places of fluorescein; also called NB-2-20; source: E. coli SHuffle T7, purified (HisTrap HP), modified with NHS-Fluo, ultrafiltration
In the assay with β2-Microglobulin [1], B7 came in with a koff of 0.00328 s⁻¹ and a kon of 77.4 M⁻¹ s⁻¹.

B8: NB-2 modified with 5 times of NHS-Fluo (VHH)
VHH: QVQLVESGGGLVQHGGSLRLSCAASGSAFSTYSMTWHRQAPGKGREWVAGVDRSNSDTNYADSVKGRFTIYRDNAQNTVYLRMNSLKPEDTAVYYCSAERLDGSVRREYWGQGTQVTVSS
notes: as the VHH domain of Dm6; flexible (G4S)4 linker between the VHH domain and the His6 tag, written out from '(G4S)4'; A mixture of isomers with different numbers and places of fluorescein; also called NB-2-5; source: E. coli SHuffle T7, purified (HisTrap HP), modified with NHS-Fluo, ultrafiltration
On to B8, for which, in the assay with β2-Microglobulin [1], the affinity, expressed as Kd, was 9370 nM; the koff was found to be 0.00554 s⁻¹; the kon worked out at 591 M⁻¹ s⁻¹.

B9: NB-2 (anti-β2M VHH, unmodified), VHH-(G4S)4-His6 (VHH)
VHH: QVQLVESGGGLVQHGGSLRLSCAASGSAFSTYSMTWHRQAPGKGREWVAGVDRSNSDTNYADSVKGRFTIYRDNAQNTVYLRMNSLKPEDTAVYYCSAERLDGSVRREYWGQGTQVTVSS
notes: VHH domain of NB-2; flexible (G4S)4 linker between the VHH domain and the 6xHis-tag, written out from the printed formula; Homology model built on template PDB 5IML (GMQE 0.92), a template only; also called NB-2-origin; NB-2-0; source: E. coli SHuffle T7, purified (HisTrap HP)
In the case of B9, in the assay with β2-Microglobulin (β2M) [3], the Kd worked out at 726 nM and the “fold increase of KD against the sample without any treatment” value is about 2 fold.

B10: NB-2 modified by a 20 fold amount of NHS-Fluo (VHH)
VHH: QVQLVESGGGLVQHGGSLRLSCAASGSAFSTYSMTWHRQAPGKGREWVAGVDRSNSDTNYADSVKGRFTIYRDNAQNTVYLRMNSLKPEDTAVYYCSAERLDGSVRREYWGQGTQVTVSS
notes: VHH domain as in m4 (NB-2); flexible (G4S)4 linker between the VHH domain and the 6xHis-tag, written out from the printed formula; Heterogeneous product of random amino modification; also called modified NB-2; NB-2 20:1; source: E. coli SHuffle T7, purified (HisTrap HP), then modified with NHS-Fluo (2 h, 4 °C), ultrafiltration
As for B10, the Kd with β2-Microglobulin (β2M) [3] was 42300 nM.
